Tested on: Bs-CspB-100V80 fusion (ssRNA purification reagent, Isotag) (Bacillus subtilis)
Conditions: percent of spiked dsRNA eluted; greater than 4-log dsRNA removal; dsRNA ELISA

dsRNA matching the sequence and size of the eGFP ssRNA
binding: < 4%
